The text below walks through data of publication PMC7904846 (2021).

B1: CD105 (natural protein)
chain: ETVHCDLQPVGPERGEVTYTTSQVSKGCVAQAPNAILEVHVLFLEFPTGPSQLELTLQASKQNGTWPREVLLVLSVNSSVFLHLQALGIPLHLAYNSSLVTFQEPPGVNTTELPSFPKTQILEWAAERGPITSAAELNDPQSILLRLGQAQGSLSFCMLEASQDMGRTLEWRPRTPALVRGCHLEGVAGHKEAHILRVLPGHSAGPRTVTVKVELSCAPGDLDAVLILQGPPYVSWLIDANHNMQIWTTGEYSFKIFPEKNIRGFKLPDTPQGLLGEARMLNASIVASFVELPLASIVSLHASSCGGRLQTSPAPIQTTPPKDTCSPELLMSLIQTKCADDAMTLVLKKELVAHLKCTITGLTFWDPSCEAEDRGDKFVLRSAYSSCGMQVSASMISNEAVVNILSSSSPQRKKVHCLNMDSLSFQLGLYLSPHFLQASNTIEPGQQSFVQVRVSPSVSEFLLQLDSCHLDLGPEGGTVELIQGRAAKGNCVSLLSPSPEGDPRFSFLLHFYTVPIPKTGTLSCTVALRPKTGSQDQEVHRTVFMRLNIISPDLSGCTSKGLVLPAVLGITFGAFLIGALLTAALWYIYSHTRSPSKREPVVAVAAPASSESSSTNHSIGSTQSTPCSTSSMA

Among the targets are C59; C50; C86; C68; C168.
Common to all, as to experiment: SPR
Assay [1] concerns the target B1.
In assay [2] the target is B1.

With B1, the dissociation constant Kd (commonly the constant that tells how readily two partners part at equilibrium) with C59 worked out at 65.9 nM; with C50, 16.2 nM; with C86, 42.6 nM; with C68, 28.9 nM; in the assay with C168, 89 nM. Besides, the off-rate constant (koff) – broadly, the rate constant with which the complex falls apart – came out at 0.00255 s⁻¹ in the assay with C59; 0.00132 s⁻¹ in the assay with C50; 0.00144 s⁻¹ with C86; 0.00171 s⁻¹ with C68; 0.00391 s⁻¹ with C168.

B2: Nb C184 (VHH)
VHH: QVQLQESGGGSVQAGGSLRLSCVASGYTVSRGYMGWFRQAPGKEREAVAAIRTGSGSTYYADSVKGRFTISQDNAKNTVYLQMNSLKHEDTGMYYCAASLWYGGNWQSWGSYNYWGQGTQVTVSS
B2 had a koff with CD105 [1] of 0.00188 s⁻¹. Further, the equilibrium dissociation constant (Kd) in the assay with CD105 [2] worked out at 44.7 nM.
